Reference: US20220112291A1 (Pfizer, published 2022)
Values belong to the binder of their own block, whether it stands above or below them.

Key:
[1] = biological target: T1, human single-chain CD1a-β2M recombinant protein (Human B2M-CD1a ECD-Avi-His6) (human); test: SPR (Biacore 8K, 37 °C), Ab571 captured by anti-human Fc, human CD1a as analyte, 1:1 Langmuir fit; mean ± SD, n = 6
T1 construct: Biotinylated in the HTRF, phage selection and Gyrolab assays; also called human CD1a; CD1a protein

[2] = biological target: T2, human CD1a expressed on cells (human, UniProt P06126 17-327); test: flow cytometry, AF-647-conjugated Ab571 on primary human monocyte-derived dendritic cells; average
T2 construct: Full-length human CD1a on the cell surface (transfected CHO, C1R, K562 cells, or endogenous on primary dendritic cells); associated β2-microglobulin of the cell not described; also called CHO/human CD1a; C1R-huCD1a
T2 sequence (P06126 17-327): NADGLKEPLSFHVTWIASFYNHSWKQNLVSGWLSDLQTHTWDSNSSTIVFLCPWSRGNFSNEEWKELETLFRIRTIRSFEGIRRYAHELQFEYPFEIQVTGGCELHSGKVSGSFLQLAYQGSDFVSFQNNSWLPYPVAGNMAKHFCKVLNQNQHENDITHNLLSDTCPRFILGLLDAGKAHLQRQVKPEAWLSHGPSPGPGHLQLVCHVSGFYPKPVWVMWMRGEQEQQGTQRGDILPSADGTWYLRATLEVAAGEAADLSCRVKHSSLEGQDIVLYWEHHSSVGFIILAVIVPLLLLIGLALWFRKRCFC

[3] = biological target: Human CD1d (recombinant; Human B2M-CD1d ECD-His6) (human); test: ELISA, plates coated with recombinant CD1d, titrated Ab571
Sequence of Human CD1d (recombinant; Human B2M-CD1d ECD-His6) (human) (chain, as listed by the source limits assumed): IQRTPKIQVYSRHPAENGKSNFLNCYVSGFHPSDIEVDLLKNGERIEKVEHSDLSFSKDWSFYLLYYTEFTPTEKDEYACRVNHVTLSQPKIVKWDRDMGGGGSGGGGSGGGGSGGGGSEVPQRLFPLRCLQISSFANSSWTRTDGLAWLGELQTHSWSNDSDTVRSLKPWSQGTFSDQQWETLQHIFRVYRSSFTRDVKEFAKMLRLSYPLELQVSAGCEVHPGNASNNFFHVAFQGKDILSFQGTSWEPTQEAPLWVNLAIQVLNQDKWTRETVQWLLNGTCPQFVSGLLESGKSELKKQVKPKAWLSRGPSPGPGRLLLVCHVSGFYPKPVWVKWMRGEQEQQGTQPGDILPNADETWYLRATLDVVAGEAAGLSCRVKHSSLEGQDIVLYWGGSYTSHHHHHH

[4] = biological target: T1, human single-chain CD1a-β2M recombinant …; test: SPR (Biacore), IgG; antigen taken as human CD1a
[5] = biological target: Human CD1c (recombinant; Human B2M-CD1c ECD-His6) (human); test: ELISA, plates coated with recombinant CD1c, titrated Ab571
Sequence of Human CD1c (recombinant; Human B2M-CD1c ECD-His6) (human) (chain, as listed by the source limits assumed): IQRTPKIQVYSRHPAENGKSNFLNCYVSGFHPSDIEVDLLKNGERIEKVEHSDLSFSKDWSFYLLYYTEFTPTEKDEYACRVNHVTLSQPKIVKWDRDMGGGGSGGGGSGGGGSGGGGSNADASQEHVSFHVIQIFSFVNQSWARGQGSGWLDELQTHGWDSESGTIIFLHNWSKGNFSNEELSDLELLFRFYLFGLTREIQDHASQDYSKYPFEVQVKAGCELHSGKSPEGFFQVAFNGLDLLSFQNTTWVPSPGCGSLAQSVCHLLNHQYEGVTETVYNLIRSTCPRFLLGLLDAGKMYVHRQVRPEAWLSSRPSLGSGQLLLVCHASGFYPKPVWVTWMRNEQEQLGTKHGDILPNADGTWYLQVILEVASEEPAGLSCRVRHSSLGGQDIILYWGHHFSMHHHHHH

[6] = biological target: T3, Human C1q (human, UniProt P02745 23-245; P02746 28-253; P02747 29-245); test: in vitro human C1q binding assay
T3 construct: Source and form of C1q not described; also called Clq
T3 sequence (P02745 23-245 limits assumed, chain 1 of 3): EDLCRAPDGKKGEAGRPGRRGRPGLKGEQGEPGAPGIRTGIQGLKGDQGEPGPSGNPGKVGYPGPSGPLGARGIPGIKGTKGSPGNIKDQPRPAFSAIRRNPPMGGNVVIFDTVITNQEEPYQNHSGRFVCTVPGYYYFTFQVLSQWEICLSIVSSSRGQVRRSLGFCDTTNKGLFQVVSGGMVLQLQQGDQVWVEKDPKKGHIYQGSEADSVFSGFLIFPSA
T3 sequence (P02746 28-253 limits assumed, chain 2 of 3): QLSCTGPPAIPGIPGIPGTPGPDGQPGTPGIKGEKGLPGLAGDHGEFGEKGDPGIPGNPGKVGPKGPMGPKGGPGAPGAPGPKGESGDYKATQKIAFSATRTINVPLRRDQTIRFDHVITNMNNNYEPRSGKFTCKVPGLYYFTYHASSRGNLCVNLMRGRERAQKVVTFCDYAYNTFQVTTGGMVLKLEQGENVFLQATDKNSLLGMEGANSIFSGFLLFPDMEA
T3 sequence (P02747 29-245 limits assumed, chain 3 of 3): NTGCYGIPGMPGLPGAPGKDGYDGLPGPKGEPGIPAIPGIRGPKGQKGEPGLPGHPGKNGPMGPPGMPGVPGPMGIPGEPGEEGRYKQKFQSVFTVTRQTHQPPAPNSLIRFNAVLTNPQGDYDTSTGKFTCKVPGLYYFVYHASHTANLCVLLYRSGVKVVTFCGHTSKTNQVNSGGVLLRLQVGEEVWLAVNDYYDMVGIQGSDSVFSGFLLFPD

[7] = biological target: T4, cynomolgus CD1a-β2M recombinant protein (Cyno B2M-CD1a ECD-Avi-His6) (cynomolgus monkey); test: Surface Plasmon Resonance (summary table; same experiment as Table 7)
T4 construct: also called cyno CD1a; cynomolgus monkey CD1a
T4 chain: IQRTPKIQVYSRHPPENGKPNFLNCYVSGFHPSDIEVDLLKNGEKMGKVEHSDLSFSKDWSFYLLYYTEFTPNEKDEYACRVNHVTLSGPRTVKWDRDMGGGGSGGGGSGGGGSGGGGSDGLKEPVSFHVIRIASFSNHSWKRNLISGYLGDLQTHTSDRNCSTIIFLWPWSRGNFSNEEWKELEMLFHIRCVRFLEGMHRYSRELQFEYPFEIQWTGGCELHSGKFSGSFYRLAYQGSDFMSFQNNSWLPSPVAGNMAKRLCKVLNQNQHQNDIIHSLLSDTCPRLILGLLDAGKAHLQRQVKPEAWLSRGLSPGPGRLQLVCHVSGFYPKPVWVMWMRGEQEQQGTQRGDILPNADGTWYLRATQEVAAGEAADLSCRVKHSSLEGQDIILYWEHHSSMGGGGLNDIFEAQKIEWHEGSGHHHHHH

[8] = biological target: T1, human single-chain CD1a-β2M recombinant …; test: as above
[9] = biological target: T1, human single-chain CD1a-β2M recombinant …; test: SPR (Biacore 8K, 37 °C), Ab571 captured by anti-human Fc, human CD1a as analyte, 1:1 Langmuir fit
[10] = biological target: Human CD1b (recombinant; Human B2M-CD1b ECD-His6) (human); test: ELISA, plates coated with recombinant CD1b, titrated Ab571
Sequence of Human CD1b (recombinant; Human B2M-CD1b ECD-His6) (human) (chain, as listed by the source limits assumed): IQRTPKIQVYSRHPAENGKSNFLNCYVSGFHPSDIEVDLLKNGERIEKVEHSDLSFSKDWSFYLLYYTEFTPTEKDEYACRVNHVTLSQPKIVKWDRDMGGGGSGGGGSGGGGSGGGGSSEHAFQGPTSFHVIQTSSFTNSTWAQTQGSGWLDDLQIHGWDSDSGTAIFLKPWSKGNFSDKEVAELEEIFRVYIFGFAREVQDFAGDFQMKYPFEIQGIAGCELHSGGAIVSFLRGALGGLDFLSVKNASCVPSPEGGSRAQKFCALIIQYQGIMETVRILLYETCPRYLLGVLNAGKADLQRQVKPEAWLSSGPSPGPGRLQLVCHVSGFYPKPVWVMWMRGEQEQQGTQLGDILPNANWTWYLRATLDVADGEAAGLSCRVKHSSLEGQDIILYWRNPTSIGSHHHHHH

[11] = biological target: T2, human CD1a expressed on cells; test: cell-based or functional assay
[12] = biological target: T4, cynomolgus CD1a-β2M recombinant protein …; test: SPR (Biacore 8K, 37 °C), Ab571 captured by anti-human Fc, cyno CD1a as analyte, 1:1 Langmuir fit
[13] = biological target: T1, human single-chain CD1a-β2M recombinant …; test: ELISA, plates coated with recombinant human CD1a, titrated Ab571
[14] = biological target: T2, human CD1a expressed on cells; test: cell-based or functional assay; remark: listed apart in the source
[15] = biological target: T4, cynomolgus CD1a-β2M recombinant protein …; test: SPR (Biacore 8K, 37 °C), Ab571 captured by anti-human Fc, cyno CD1a as analyte, 1:1 Langmuir fit; mean ± SD, n = 6
[16] = biological target: T1, human single-chain CD1a-β2M recombinant …; test: competition ELISA on plate-coated CD1a protein; competitor: biotinylated parental chimeric Ab40 at a fixed concentration; streptavidin-HRP, OD450
Target sequence in this assay (chain, as listed by the source limits assumed): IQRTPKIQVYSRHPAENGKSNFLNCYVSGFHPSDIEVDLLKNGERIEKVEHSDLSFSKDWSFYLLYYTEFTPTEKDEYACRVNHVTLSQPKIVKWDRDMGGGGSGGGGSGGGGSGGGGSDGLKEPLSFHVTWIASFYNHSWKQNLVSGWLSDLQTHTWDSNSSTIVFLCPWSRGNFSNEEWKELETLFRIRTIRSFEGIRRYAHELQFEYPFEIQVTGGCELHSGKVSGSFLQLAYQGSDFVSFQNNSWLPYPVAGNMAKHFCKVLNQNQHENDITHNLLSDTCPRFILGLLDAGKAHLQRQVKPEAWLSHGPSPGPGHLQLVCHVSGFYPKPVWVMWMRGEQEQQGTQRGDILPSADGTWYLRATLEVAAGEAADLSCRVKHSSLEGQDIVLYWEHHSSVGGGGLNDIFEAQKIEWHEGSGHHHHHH

Kd [1]: 0.181 nM
EC50 [2]: 7.83 nM
binding result [3]: no binding
Kd [4]: 0.17 nM
binding result [5]: no binding
Kd [7]: 0.06 nM
Kd [8]: 0.181 nM
koff [9]: 0.000228 s⁻¹
kon [9]: 1.26e+06 M⁻¹ s⁻¹
binding result [10]: no binding
Inhibition of CD69 expression, IC50 [11]: 1.11 nM
koff [12]: 9.8e-05 s⁻¹
kon [12]: 1.64e+06 M⁻¹ s⁻¹
EC50 [13]: 0.00652 nM
Human Jurkat T cell Activation: IC50 CD69 Expression [14]: 0.894 nM
Human Jurkat T cell Activation: IC50 IL-2 [14]: 0.268 nM
Kd [15]: 0.0604 nM
B1: Ab571 (antibody, human IgG1, kappa)
heavy: EVQLVESGGGLVQPGGSLRLSCAASGFTFTDHYMTWVRQAPGKGLEWVAFIRNKAGGYTTESNPAVKGRFTISRDNAKNSLYLQMNSLRAEDTAVYYCARETTGIPTGWFAYWGQGTLVTVSSASTKGPSVFPLAPSSKSTSGGTAALGCLVKDYFPEPVTVSWNSGALTSGVHTFPAVLQSSGLYSLSSVVTVPSSSLGTQTYICNVNHKPSNTKVDKKVEPKSCDKTHTCPPCPAPEAAGAPSVFLFPPKPKDTLMISRTPEVTCVVVDVSHEDPEVKFNWYVDGVEVHNAKTKPREEQYNSTYRVVSVLTVLHQDWLNGKEYKCKVSNKALPAPIEKTISKAKGQPREPQVYTLPPSREEMTKNQVSLTCLVKGFYPSDIAVEWESNGQPENNYKTTPPVLDSDGSFFLYSKLTVDKSRWQQGNVFSCSVMHEALHNHYTQKSLSLSPGK
light: DIQMTQSPSSLSASVGDRVTITCLASEDIYFDLAWYQQKPGKAPKLLIYGGDRLKEGVPSRFSGSGSGTDYTLTISSLQPEDFATYYCQQSYSYPYTFGQGTKLEIKRTVAAPSVFIFPPSDEQLKSGTASVVCLLNNFYPREAKVQWKVDNALQSGNSQESVTEQDSKDSTYSLSSTLTLSKADYEKHKVYACEVTHQGLSSPVTKSFNRGEC
notes: Lead optimized variant of Ab138; human IgG1 effector null / kappa; HC with or without terminal lysine; Used AF-647- or FITC-conjugated in the dendritic cell flow cytometry assays; also called FITC-Ab571; AF-647-conjugated Ab571
binding result [6]: no binding (tested: Up to 30 µg/mL (C1q))

Kd [4]: 0.57 nM
Inhibition of CD69 expression, IC50 [11]: 0.33 nM
Inhibition of IL-2 production, IC50 [11]: 0.15 nM
B2: Ab660 (antibody, human IgG1, kappa, V domains shown)
VH: EVQLVESGGGLVQPGGSLRLSCAASGFTFTDHYMHWVRQAPGKGLEWVGHIRNAAGGYTTESNPAVKGRFTISRDNAKNSLYLQMNSLRAEDTAVYYCARETTRIPTGWFAYWGQGTLVTVSS
VL: DIQMTQSPSSLSASVGDRVTITCLASEDIYFDLAWYQQKPGKAPKLLIYGASTPKDGVPSRFSGSGSGTDYTLTISSLQPEDFATYYCQQSEKYPYTFGQGTKLEIKR
notes: Optimized variant of Ab138; human IgG1 effector null / kappa; HC with or without terminal lysine

Kd [4]: 1.22 nM
Inhibition of CD69 expression, IC50 [11]: 0.42 nM
Inhibition of IL-2 production, IC50 [11]: 0.12 nM
B3: Ab681 (antibody, human IgG1, kappa, V domains shown)
VH: EVQLVESGGGLVQPGGSLRLSCAASGFTFTDHYMHWVRQAPGKGLEWVAHTRDKAGGYTTESNPAVKGRFTISRDNAKNSLYLQMNSLRAEDTAVYYCARETTRIPTGWFAYWGQGTLVTVSS
VL: DIQMTQSPSSLSASVGDRVTITCLASEDIYFDLAWYQQKPGKAPKLLIYGGDRLQEGVPSRFSGSGSGTDYTLTISSLQPEDFATYYCQQSESYPYTFGQGTKLEIKR
notes: as for B2

Kd [4]: 0.21 nM
Inhibition of CD69 expression, IC50 [11]: 0.3 nM
Inhibition of IL-2 production, IC50 [11]: 0.18 nM
B4: Ab673 (antibody, human IgG1, kappa, V domains shown)
VH: EVQLVESGGGLVQPGGSLRLSCAASGFTFTDHYMHWVRQAPGKGLEWVAHTRDKAGGYTTESNPAVKGRFTISRDNAKNSLYLQMNSLRAEDTAVYYCARETTRIPTGWFAYWGQGTLVTVSS
VL: DIQMTQSPSSLSASVGDRVTITCLASEDIYFDLAWYQQKPGKAPKLLIYGGDRLKEGVPSRFSGSGSGTDYTLTISSLQPEDFATYYCQQSYSYPYTFGQGTKLEIKR
notes: as for B2

Kd [4]: 3.59 nM
Inhibition of CD69 expression, IC50 [11]: 0.41 nM
Inhibition of IL-2 production, IC50 [11]: 0.17 nM
B5: Ab689 (antibody, human IgG1, kappa, V domains shown)
VH: EVQLVESGGGLVQPGGSLRLSCAASGFTFTDHYMHWVRQAPGKGLEWVAHTRDKAGGYTTESNPAVKGRFTISRDNAKNSLYLQMNSLRAEDTAVYYCARETTRIPTGWFAYWGQGTLVTVSS
VL: DIQMTQSPSSLSASVGDRVTITCLASEDIYFDLAWYQQKPGKAPKLLIYGGDRLQEGVPSRFSGSGSGTDYTLTISSLQPEDFATYYCQQSYSYPYTFGQGTKLEIKR
notes: as for B2

IC50 [16]: 1.94 nM
Kd [4]: 3.87 nM
Inhibition of CD69 expression, IC50 [11]: 1.97 nM
B6: Ab138 (antibody, human IgG1, kappa, V domains shown)
VH: EVQLVESGGGLVQPGGSLRLSCAASGFTFTDFYMNWVRQAPGKGLEWVAFIRNKANGYTTESNPSVKGRFTISRDNAKNSLYLQMNSLRAEDTAVYYCARETTGIPTGWFAYWGQGTLVTVSS
VL: DIQMTQSPSSLSASVGDRVTITCLASEDISNDLAWYQQKPGKAPKLLIYGANRLKDGVPSRFSGSGSGTDYTLTISSLQPEDFATYYCQQSYKYPYTFGQGTKLEIKR
notes: Humanized variant of chimeric Ab40; human IgG1 (L234A/L235A/G237A, effector function null) / human kappa; heavy chain can be prepared with or without the terminal lysine; Tb-labeled in the HTRF assay; also called humanized anti-CD1a antibody Ab138; parental Ab138
